From the supplement of paper PMC10567573

B1: SETD8 (parent)
chain: GKQAPRKKAQGKTQQNRKLTDFYP
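Also: lentivirally expressed fusions sorted by FACS into six bins by GFP to DsRed ratio, PSI derived from sequencing read proportions per bin multiplied by bin number.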

Variants of: B1
Assay: protein stability index of a GFP-peptide fusion (GPS, HEK-293T) (PSI 1-6); higher = more stable
Settings: c terminus: a fixed tail appended
For R17K, the protein stability index was 2.59.
With R17D the protein stability index was 3.8.
R17C showed a protein stability index of 2.96.
In the case of R17F, the protein stability index is reported as 2.88.
Work on R17G yielded a protein stability index of 3.91.
With R17I the protein stability index was 3.68.
In the case of R17E, the protein stability index is reported as 3.13.
Work on R17H yielded a protein stability index of 2.88.
Q14F gave a protein stability index of 1.92.
Variant Q14C has a protein stability index of 2.37.
For Q14W, the protein stability index was 3.37.
Variant Q14P has a protein stability index of 4.36.
For Q14I, the protein stability index was 3.11.
Q14V showed a protein stability index of 3.07.
With Q14D the protein stability index was 3.06.
Q14Y gave a protein stability index of 3.4.
Variant Q14T has a protein stability index of 3.4.
In the case of Q14S, the protein stability index is reported as 1.89.
Q14A gave a protein stability index of 2.81.
In the case of Q14M, the protein stability index is reported as 3.64.
Work on Q14R yielded a protein stability index of 1.85.
With Q14E the protein stability index was 3.41.
In the case of Q14G, the protein stability index is reported as 2.52.
With Q14H the protein stability index was 1.57.
Q10W showed a protein stability index of 2.08.
In the case of Q10R, the protein stability index is reported as 3.16.
Variant Q10I has a protein stability index of 2.86.
With Q10F the protein stability index was 3.28.
Work on Q10V yielded a protein stability index of 3.01.
Work on Q10P yielded a protein stability index of 2.65.
For Q10Y, the protein stability index was 3.22.
In the case of Q10A, the protein stability index is reported as 3.52.
In the case of Q10D, the protein stability index is reported as 3.17.
Q10S showed a protein stability index of 4.86.
For Q10E, the protein stability index was 2.78.
For Q10M, the protein stability index was 2.55.
With P5M the protein stability index was 3.08.
Work on P5F yielded a protein stability index of 2.95.
Work on P5T yielded a protein stability index of 1.74.
P5K showed a protein stability index of 3.35.
P5A showed a protein stability index of 2.52.
In the case of P5H, the protein stability index is reported as 2.85.
Variant P5L has a protein stability index of 2.74.
Work on P5G yielded a protein stability index of 4.29.
For P5E, the protein stability index was 3.58.
P5V gave a protein stability index of 3.18.
P5W gave a protein stability index of 2.57.
In the case of P5C, the protein stability index is reported as 1.99.
P5Q showed a protein stability index of 3.75.
Work on P5I yielded a protein stability index of 3.36.
P5Y gave a protein stability index of 2.2.
With P5S the protein stability index was 4.65.
Variant K8N has a protein stability index of 2.77.
K8L showed a protein stability index of 1.99.
Variant K8W has a protein stability index of 3.3.
K8C gave a protein stability index of 3.48.
In the case of K8Q, the protein stability index is reported as 4.11.
In the case of K8R, the protein stability index is reported as 2.75.
Variant K8T has a protein stability index of 2.77.
K8S showed a protein stability index of 3.55.
In the case of K8G, the protein stability index is reported as 3.85.
For K8I, the protein stability index was 3.04.
For K8Y, the protein stability index was 3.22.
K8F gave a protein stability index of 1.63.
In the case of K8A, the protein stability index is reported as 3.52.
K8H showed a protein stability index of 2.99.
With K8P the protein stability index was 3.76.
K8M gave a protein stability index of 3.47.
For N16M, the protein stability index was 3.37.
With N16Y the protein stability index was 1.96.
With N16V the protein stability index was 3.57.
N16F showed a protein stability index of 2.68.
For N16E, the protein stability index was 3.65.
For N16S, the protein stability index was 4.04.
In the case of N16A, the protein stability index is reported as 3.02.
In the case of N16I, the protein stability index is reported as 3.13.
N16T showed a protein stability index of 2.53.
Variant N16K has a protein stability index of 2.91.
In the case of N16P, the protein stability index is reported as 2.45.
R6G showed a protein stability index of 3.55.
Variant R6H has a protein stability index of 3.07.
R6C gave a protein stability index of 2.82.
Work on R6Y yielded a protein stability index of 2.65.
R6N gave a protein stability index of 4.12.
For R6F, the protein stability index was 2.43.
R6T gave a protein stability index of 3.21.
Work on R6D yielded a protein stability index of 3.67.
Work on R6K yielded a protein stability index of 3.44.
Variant R6P has a protein stability index of 4.13.
Variant R6V has a protein stability index of 2.68.
In the case of R6A, the protein stability index is reported as 3.42.
R6S gave a protein stability index of 3.46.
With R6E the protein stability index was 3.29.
In the case of R6W, the protein stability index is reported as 2.48.
Variant R6I has a protein stability index of 2.76.
In the case of A9P, the protein stability index is reported as 3.43.
A9I showed a protein stability index of 3.08.
In the case of A9Y, the protein stability index is reported as 3.35.
A9M gave a protein stability index of 2.54.
Work on A9N yielded a protein stability index of 4.09.
For A9H, the protein stability index was 2.6.
With A9D the protein stability index was 3.57.
With A9Q the protein stability index was 2.89.
In the case of A9C, the protein stability index is reported as 2.77.
A4P showed a protein stability index of 2.63.
In the case of A4Q, the protein stability index is reported as 2.77.
Work on A4W yielded a protein stability index of 3.3.
A4S showed a protein stability index of 4.29.
A4V gave a protein stability index of 1.83.
In the case of A4T, the protein stability index is reported as 2.71.
A4R showed a protein stability index of 3.15.
Q15H gave a protein stability index of 3.76.
Variant Q15D has a protein stability index of 3.71.
In the case of Q15L, the protein stability index is reported as 2.76.
Variant Q15N has a protein stability index of 3.07.
For Q15S, the protein stability index was 3.26.
In the case of Q15C, the protein stability index is reported as 2.15.
Work on T13M yielded a protein stability index of 2.16.
With T13A the protein stability index was 3.48.
In the case of T13E, the protein stability index is reported as 3.83.
In the case of T13F, the protein stability index is reported as 2.37.
T13D gave a protein stability index of 3.09.
T13N showed a protein stability index of 2.87.
In the case of T13G, the protein stability index is reported as 3.35.
For T13S, the protein stability index was 2.04.
In the case of T13V, the protein stability index is reported as 3.39.
T13Q showed a protein stability index of 3.93.
Variant T13I has a protein stability index of 3.28.
With T13R the protein stability index was 3.82.
K7F gave a protein stability index of 2.42.
Work on K7Q yielded a protein stability index of 3.96.
For K7M, the protein stability index was 3.72.
Work on K7W yielded a protein stability index of 2.95.
K7N gave a protein stability index of 2.21.
K7E gave a protein stability index of 2.82.
Work on K7Y yielded a protein stability index of 3.06.
In the case of K7S, the protein stability index is reported as 2.48.
Variant K7T has a protein stability index of 2.78.
With K7D the protein stability index was 3.07.
With K12C the protein stability index was 2.19.
Work on K12A yielded a protein stability index of 2.76.
In the case of K12R, the protein stability index is reported as 2.99.
K12L gave a protein stability index of 3.21.
Variant K12G has a protein stability index of 3.37.
K12W showed a protein stability index of 3.08.
K12D showed a protein stability index of 2.51.
Work on K12N yielded a protein stability index of 3.07.
For K12I, the protein stability index was 2.85.
Variant K12T has a protein stability index of 3.32.
With K12E the protein stability index was 3.66.
In the case of K12Y, the protein stability index is reported as 3.42.
For K12P, the protein stability index was 2.51.
For K12F, the protein stability index was 4.09.
With G11Y the protein stability index was 3.21.
With G11K the protein stability index was 2.91.
With G11A the protein stability index was 4.17.
G11E gave a protein stability index of 3.42.
In the case of G11R, the protein stability index is reported as 2.66.
Variant G11S has a protein stability index of 3.55.
Variant G11N has a protein stability index of 3.6.
With G11P the protein stability index was 3.46.
For G11T, the protein stability index was 2.84.
In the case of G11M, the protein stability index is reported as 3.29.
G11I showed a protein stability index of 3.73.
In the case of G11D, the protein stability index is reported as 2.94.
For G11H, the protein stability index was 3.56.
G11L showed a protein stability index of 3.27.
